Experiments:
Assay in all cases: cross-linking
[1] = target: T1, Atg7 V285D (S. cerevisiae, UniProt P38862 1-630, V285D)
T1 sequence (looked up): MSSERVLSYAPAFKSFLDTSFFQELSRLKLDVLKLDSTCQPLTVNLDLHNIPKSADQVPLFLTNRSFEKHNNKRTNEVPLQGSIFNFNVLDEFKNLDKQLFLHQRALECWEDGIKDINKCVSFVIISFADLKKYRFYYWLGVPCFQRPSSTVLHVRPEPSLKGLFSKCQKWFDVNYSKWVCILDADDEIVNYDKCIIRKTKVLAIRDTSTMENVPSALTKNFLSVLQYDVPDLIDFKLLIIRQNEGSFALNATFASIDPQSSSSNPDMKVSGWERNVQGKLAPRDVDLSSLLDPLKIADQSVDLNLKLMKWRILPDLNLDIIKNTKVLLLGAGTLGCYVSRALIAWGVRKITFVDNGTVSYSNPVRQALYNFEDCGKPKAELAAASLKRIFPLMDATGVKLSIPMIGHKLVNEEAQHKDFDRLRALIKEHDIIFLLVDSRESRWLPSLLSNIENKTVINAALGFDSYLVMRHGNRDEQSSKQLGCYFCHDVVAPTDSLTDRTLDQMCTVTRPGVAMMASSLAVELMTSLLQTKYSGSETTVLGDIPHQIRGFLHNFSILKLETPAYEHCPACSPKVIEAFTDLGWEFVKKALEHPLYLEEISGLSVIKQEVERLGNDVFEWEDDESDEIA

[2] = target: T2, Atg7 with residues 290–294 deleted (S. cerevisiae, UniProt P38862 1-630, deletion of residues 290–294)
T2 sequence (looked up): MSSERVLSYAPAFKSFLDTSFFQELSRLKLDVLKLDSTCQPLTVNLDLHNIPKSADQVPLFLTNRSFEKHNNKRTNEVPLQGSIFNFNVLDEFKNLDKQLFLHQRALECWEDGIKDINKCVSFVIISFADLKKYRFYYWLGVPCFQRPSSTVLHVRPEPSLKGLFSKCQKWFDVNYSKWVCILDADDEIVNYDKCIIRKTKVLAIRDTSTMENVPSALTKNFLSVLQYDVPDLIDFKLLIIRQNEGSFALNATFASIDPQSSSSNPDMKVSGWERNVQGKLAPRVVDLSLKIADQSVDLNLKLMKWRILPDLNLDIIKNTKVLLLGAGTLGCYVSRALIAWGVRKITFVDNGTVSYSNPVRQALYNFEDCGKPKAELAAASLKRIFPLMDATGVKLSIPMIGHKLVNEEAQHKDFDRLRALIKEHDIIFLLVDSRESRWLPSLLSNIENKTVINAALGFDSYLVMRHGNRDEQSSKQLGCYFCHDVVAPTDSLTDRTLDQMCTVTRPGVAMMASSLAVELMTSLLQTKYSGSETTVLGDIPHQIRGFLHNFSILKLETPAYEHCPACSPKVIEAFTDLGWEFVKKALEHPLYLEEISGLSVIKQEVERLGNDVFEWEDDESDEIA

[3] = target: T3, Atg7 with a Gly-Gly-Ser-Gly insertion after Leu291 (S. cerevisiae, UniProt P38862 1-630, Gly-Gly-Ser-Gly insertion after Atg7’s Leu291)
T3 sequence (looked up): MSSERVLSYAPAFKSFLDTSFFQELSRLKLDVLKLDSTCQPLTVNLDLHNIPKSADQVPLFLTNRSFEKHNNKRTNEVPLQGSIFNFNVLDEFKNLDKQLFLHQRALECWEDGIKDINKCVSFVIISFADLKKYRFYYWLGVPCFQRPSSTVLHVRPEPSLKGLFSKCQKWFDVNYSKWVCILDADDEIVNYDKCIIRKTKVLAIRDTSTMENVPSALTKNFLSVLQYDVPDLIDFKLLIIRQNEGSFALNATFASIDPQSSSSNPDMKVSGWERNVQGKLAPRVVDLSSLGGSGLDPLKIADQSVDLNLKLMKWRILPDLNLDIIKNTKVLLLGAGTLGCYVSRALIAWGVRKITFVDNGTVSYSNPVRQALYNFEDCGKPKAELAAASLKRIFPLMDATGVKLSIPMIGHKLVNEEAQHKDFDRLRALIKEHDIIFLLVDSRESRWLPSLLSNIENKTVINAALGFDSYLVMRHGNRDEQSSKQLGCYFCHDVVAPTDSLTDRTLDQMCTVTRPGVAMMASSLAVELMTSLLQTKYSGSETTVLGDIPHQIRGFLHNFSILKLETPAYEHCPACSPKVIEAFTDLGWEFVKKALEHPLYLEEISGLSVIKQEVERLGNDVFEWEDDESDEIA

binding result [1]: binds | binding result [2]: binds | binding result [3]: binds
B1: Atg3(C41A C76A C83A) (enzyme, S. cerevisiae)
chain: MIRSTLSSWREYLTPITHKSTFLTTGQITPEEFVQAGDYLAHMFPTWKWNEESSDISYRDFLPKNKQFLIIRKVPADKRAEQAVEVEGPDVIMKGFAEDGDEDDVLEYIGSETEHVQSTPAGGTKDSSIDDIDELIQDMEIKEEDENDDTEEFNAKGGLAKDMAQERYYDLYIAYSTSYRVPKMYIVGFNSNGSPLSPEQMFEDISADYRTKTATIEKLPFYKNSVLSVSIHPCKHANVMKILLDKVRVVRQRRRKELQEEQELDGVGDWEDLQDDIDDSLRVDQYLIVFLKFITSVTPSIQHDYTMEGW
modifications: Cys234 reacted with bismaleimidoethane (BMOE)
